Measurements taken from publication PMC11167044.

Target: PKM2 in SW480 cells (human (endogenous in SW480)) (UniProt P14618)
Test: cross-linking; PKM2 cross-linked in SW480 cells expressing MYG1 variants, following ref. 37; SDS-PAGE and western blot

PKM2 in SW480 cells, P14618 1-531 (enzyme; other documents disagree on this pair), sequence (P14618 whole entry): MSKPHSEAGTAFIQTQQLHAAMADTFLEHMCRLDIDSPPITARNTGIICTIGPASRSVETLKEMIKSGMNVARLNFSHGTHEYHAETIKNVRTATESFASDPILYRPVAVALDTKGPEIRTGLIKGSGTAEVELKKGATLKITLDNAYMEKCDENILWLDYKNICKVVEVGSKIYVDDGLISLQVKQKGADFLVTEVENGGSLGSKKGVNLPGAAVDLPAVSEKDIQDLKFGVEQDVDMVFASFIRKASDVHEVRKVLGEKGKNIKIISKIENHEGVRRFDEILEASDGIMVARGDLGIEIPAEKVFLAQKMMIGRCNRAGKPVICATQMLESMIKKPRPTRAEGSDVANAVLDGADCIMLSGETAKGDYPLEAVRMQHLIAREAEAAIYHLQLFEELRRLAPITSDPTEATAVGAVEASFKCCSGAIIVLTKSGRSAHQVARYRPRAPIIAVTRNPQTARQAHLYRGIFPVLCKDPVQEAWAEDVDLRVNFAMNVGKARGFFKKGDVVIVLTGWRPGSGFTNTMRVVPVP

PKM2 in SW480 cells, P14618 1-531 (enzyme; other documents disagree on this pair)
stoichiometry N: 2
